{
  "source": "paper PMC5727390",
  "about": "“Targeted inhibition of STAT/TET1 axis as a therapeutic strategy for acute myeloid leukemia”",
  "molecular_target": "STAT3 (UniProt P40763 127-722)",
  "sequence (P40763 127-722)": "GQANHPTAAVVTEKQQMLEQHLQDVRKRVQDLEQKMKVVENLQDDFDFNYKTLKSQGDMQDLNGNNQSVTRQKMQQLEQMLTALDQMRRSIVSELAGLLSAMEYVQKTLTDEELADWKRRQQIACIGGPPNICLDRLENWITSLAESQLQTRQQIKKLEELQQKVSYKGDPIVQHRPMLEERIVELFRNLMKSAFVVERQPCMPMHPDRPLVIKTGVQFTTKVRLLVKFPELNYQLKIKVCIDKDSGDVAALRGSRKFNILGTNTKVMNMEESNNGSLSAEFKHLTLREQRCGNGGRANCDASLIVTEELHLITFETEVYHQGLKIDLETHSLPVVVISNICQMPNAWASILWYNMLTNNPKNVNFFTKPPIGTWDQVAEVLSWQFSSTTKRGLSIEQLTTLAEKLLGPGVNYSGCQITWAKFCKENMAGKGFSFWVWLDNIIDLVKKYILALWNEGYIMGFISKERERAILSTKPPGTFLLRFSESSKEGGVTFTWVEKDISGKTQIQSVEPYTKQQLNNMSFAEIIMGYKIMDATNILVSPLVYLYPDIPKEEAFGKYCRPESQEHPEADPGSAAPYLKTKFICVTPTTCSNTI",
  "assay": "EMSA; no compound; Signosis EMSA Assay Kit, manufacturer's protocol with minor modifications; buffer, salt, pH and temperature not stated",
  "details": "chain copies: 2; label: 5' biotin on both strands; blunt",
  "data": [
    {"binder": "TET1-CPG probe (dsDNA) DNA 1: CCGGTAGGCGTCCTCCGCGACCCGC DNA 2: GCGGGTCGCGGAGGACGCCTACCGG", "values": [
      {"measurement": "binding result", "value": "binds"}
    ]}
  ]
}
